For assay [1], the target named is human Bri2 BRICHOS (residues 113–231) tagged C-terminally with AU1, secreted from HEK293 cells (human) (UniProt Q9Y287). Put plainly: Western blot after non-reducing SDS-PAGE; lysates of HEK293 cells transfected with Bri2 BRICHOS-AU1, anti-AU1 blot (Supplementary Fig. 9a).
The target is the same in assay [2]. Put plainly: immunoprecipitation and Western blot after non-reducing SDS-PAGE; culture medium of HEK293 cells transfected with Bri2 BRICHOS; reducing against non-reducing conditions. In general terms: In western blotting, separated proteins are transferred to a membrane and probed.
Assay [3] has as its target recombinant human Bri2 BRICHOS domain (residues 113–231 of full-length human Bri2) (human) (UniProt Q9Y287). Put plainly: SEC; rh Bri2 BRICHOS cleaved from isolated fusion-protein monomers; Superdex 200 PG. For orientation: SEC sorts molecules by how far they enter the pores of the column.
For assay [4] the target is unchanged. Put plainly: SDS-PAGE under non-reducing and reducing conditions; monomeric rh Bri2 BRICHOS (26.8 µM) incubated at 37 °C overnight in 20 mM phosphate pH 8.0, 0.2 mM EDTA, 0.02% NaN3.
Assay [5] shares this target. Put plainly: Western blot after non-reducing SDS-PAGE; rh Bri2 BRICHOS monomer (5 µM) incubated at 37 °C in 80% (v/v) mouse serum, samples at different time points, goat anti-Bri2 BRICHOS blot.
The target is the same in assay [6]. In words: SEC; rh Bri2 BRICHOS cleaved from isolated fusion-protein dimers; Superdex 200 PG.
Assay [7] shares this target. Put plainly: negative-stain TEM single-particle 3D reconstruction; oligomers isolated on Superose 6 GL in 20 mM ammonium acetate pH 8.0, 2% uranyl acetate stain, D2 symmetry applied; number of subunits from the volume of the map against that of a monomer model.
For assay [8], the target named is His6-NT*-thrombin cleavage site-Bri2 BRICHOS fusion protein (human) (UniProt Q9Y287). Put plainly: SEC; Ni-NTA-purified NT*-Bri2 BRICHOS fusion protein resolved on Superdex columns (Supplementary Fig. 1).

Several values for one entry are separate records, joined by “and”; a condition that tells them apart may be missing. Equal entries are not always repeated.

As a reminder, the stoichiometry N is a count of units in the complex or per binding partner. With “human Bri2 BRICHOS (residues 113–231) tagged C-terminally with AU1, secreted from HEK293 cells (from UniProt Q9Y287 113-231) (domain or fragment)”, the stoichiometry N was 2 and 4 in assay [1]; 2 and 4 in assay [2].

For the substance “recombinant human Bri2 BRICHOS domain (residues 113–231 of full-length human Bri2) (from UniProt Q9Y287 113-231) (domain or fragment)”, the stoichiometry N in assay [3] was 2; in assay [4], 2; in assay [5] it was 2 and 4 and 6; in assay [6] it was 2 and 4; in assay [7], 24.

In assay [8], “His6-NT*-thrombin cleavage site-Bri2 BRICHOS fusion protein (from UniProt Q9Y287 113-231) (domain or fragment)” gave a stoichiometry N of 2.
